Reference: paper PMC9293779, “Elucidation of binding preferences of YEATS domains to site-specific acetylated nucleosome core particles” (The Journal of Biological Chemistry, 2022)

How the values were obtained:
Experiment in all cases: ITC
[1] = biological target: T1, H3K14ac (1–19) peptide (Homo sapiens); settings: domain or fragment; chains chain; modification not given; acetyl-Lys14 (mature histone numbering; entry K15); terminal caps or added residues not given
T1 chain: ARTKQTARKSTGGKAPRKQ

[2] = biological target: T2, H3K4ac (1–19) peptide (Homo sapiens); settings: domain or fragment; chains chain; modification not given; acetyl-Lys4 (mature histone numbering; entry K5); terminal caps or added residues not given
T2 chain: ARTKQTARKSTGGKAPRKQ

[3] = biological target: Unmodified H3 (1–19) (Homo sapiens); settings: domain or fragment; chains chain; modification not given

- Kd [1]: > 1000 µM
- Kd [2]: 320 µM
- Kd [3]: > 1000 µM
B1: AF9-YEATS domain (residues 1–138) for X-ray analysis and ITC, P42568 1-138 (protein)
chain: MASSCAVQVKLELGHRAQVRKKPTVEGFTHDWMVFVRGPEHSNIQHFVEKVVFHLHESFPRPKRVCKDPPYKVEESGYAGFILPIEVYFKNKEEPRKVRFDYDLFLHLEGHPPVNHLRCEKLTFNNPTEDFRRKLLKA
